In article PMC3410805, “Lipopolysaccharide impairs amyloid beta efflux from brain: altered vascular sequestration, cerebrospinal fluid reabsorption, peripheral clearance and transporter function at the blood–brain barrier” (Journal of Neuroinflammation, 2012):
No end group written: not given here.

Tests used:
[1] = Aβ uptake by liver and kidney, multiple-time regression analysis; type: in vivo, CD-1 mice; details: IV, mean ± SEM, n = 7–10 per group
Experimental: All animal protocols were performed in an Association for Assessment and Accreditation of Laboratory Animal Care accredited facility and approved by the animal committee of the VA and St Louis University Medical Centers. Male CD-1 mice were purchased from Charles River and kept on a 12/12 hour light/dark cycle with food and water freely available. Mice at 6–8 weeks of age were treated with 3 intraperitoneal (IP) injections of 3 mg/kg LPS from Salmonella typhimurium (Sigma, St. Louis, MO, USA) dissolved in sterile normal saline over a 24-hour period as previously described. Briefly, the first injection was given in the morning, and the second and third injections were given at 6 and 24 hours following the first injection, respectively. All mice were studied at 28 hours following the first injection. […] No mice died as a result of this treatment regimen. A total of 225 mice were used in this study: 90 were used for detection of oxidative modifications to LRP-1 and Pgp measurement, 30 for LRP-1 measurement, 44 for measurement of Aβ and a2M vascular sequestration, 20 for CSF bulk flow measurement, 21 for measurement of peripheral Aβ clearance, and 20 for primary endothelial cell culture.
(§1) In BSA/lactated Ringer’s solution 3 × 10^5 CPM of ^131I-Aβ and ^125I-albumin were prepared and injected together into the jugular vein of mice treated with LPS or saline. The liver, the left kidney, and blood from the carotid artery were collected at 1, 2, 5, 10, and 20 minutes. Blood was allowed to clot, spun at 5,000 g to separate serum from blood cells, and 50 μl serum was counted along with harvested tissues from liver and kidney in a gamma counter. The rate of I-Aβ tissue uptake was determined using multiple-time regression analysis. For this analysis, experimental clock time was re-expressed as exposure time to correct for clearance of I-Aβ from the blood. Exposure time was calculated from the formula:
(5) Exposuretime=∫0tCpttdt/Cpt
where t equals experimental clock time, Cp represents the level of radioactivity in the serum over time and Cpt is the level of radioactivity in the serum at time t. Tissue/serum ratios were then calculated from the following formula:
(6) Tissue/serumratio=serumvolumetissueCPM/tissueweightserumCPM
To correct for alterations in vascular space and/or vascular permeability which occur with LPS administration, tissue/serum ratios for I-albumin were subtracted from those for I-Aβ. The corrected tissue/serum ratios were plotted against exposure time calculated for Aβ, and the unidirectional influx constant determined from the slope of the linear portion of the curve.

[2] = Clearance of IV-injected I-Aβ from serum; type: in vivo, CD-1 mice; details: linear regression, n = 7–10 per group
Experimental: All animal protocols were performed in an Association for Assessment and Accreditation of Laboratory Animal Care accredited facility and approved by the animal committee of the VA and St Louis University Medical Centers. Male CD-1 mice were purchased from Charles River and kept on a 12/12 hour light/dark cycle with food and water freely available. Mice at 6–8 weeks of age were treated with 3 intraperitoneal (IP) injections of 3 mg/kg LPS from Salmonella typhimurium (Sigma, St. Louis, MO, USA) dissolved in sterile normal saline over a 24-hour period as previously described. […]
as §1, with “The liver, the left kidney, and blood from the carotid artery were collected at 1, 2, 5, 10, and 20 minutes.” left out, “formula: […]” for “formula:”
Serum clearance was calculated by plotting the log serum CPM/50 μl versus experimental clock time. […]

murine BBB = details: compared with human Aβ1-42; cited from earlier work
Description: In this study we have shown that peripheral administration of LPS inhibits CSF bulk flow, central and peripheral clearance of Aβ, and increases vascular sequestration of Aβ. […] Al ...

[3] = LPS-treated mice (3 x 3 mg/kg IP, studied at 28 h), corrected for I-albumin

Substance: I-Aβ: Murine Aβ1-42 (Bachem) radioactively labeled with 125I or 131I by the chloramine-T method (DAEFGHDSGFEVRHQKLVFFAEDVGSNKGAIIGLMVGGVVIA; also: 125I or 131I radiolabel, residue not given here; UniProt P12023 672-713, looked up)
- unidirectional influx rate of Aβ into kidney (Ki) [1, 3]: 0.5608 ± 3.859 µL/g/min
- unidirectional influx rate of Aβ into liver (Ki) [1, 3]: 8.356 ± 6.433 µL/g/min
- unidirectional influx rate of Aβ into kidney (Ki) ([1]; saline-treated mice, corrected for I-albumin): 41.26 ± 10.46 µL/g/min
- unidirectional influx rate of Aβ into liver (Ki) ([1]; saline-treated mice, tissue/serum ratio corrected for I-albumin vs exposure time): 34.67 ± 3.444 µL/g/min
- half-life in serum ([2]; LPS-treated mice (3 x 3 mg/kg IP at 0, 6, 24 h, studied at 28 h), IV injection, serum at 1-20 min): 8.4 min
- half-life in serum ([2]; saline-treated mice, IV (jugular vein) injection, serum at 1, 2, 5, 10, 20 min, log serum CPM/50 μl vs time): 4 min

Substance: murine Aβ1-42: Murine amyloid beta 1-42 purchased from Bachem (DAEFGHDSGFEVRHQKLVFFAEDVGSNKGAIIGLMVGGVVIA; Amyloid-beta protein 42; UniProt P12023 672-713, looked up)
- rate of clearance across the murine BBB (murine BBB): cleared at a faster rate across the murine BBB than human Aβ1-42
